Substitutions are numbered along the chain they refer to. Each block holds one binder with its values, some of them ahead of it.
Molecular target: T1, TGF-beta 3 (human, UniProt P10600 301-412)
T1 construct: Bought protein; also called TGF-β3
T1 sequence (looked up): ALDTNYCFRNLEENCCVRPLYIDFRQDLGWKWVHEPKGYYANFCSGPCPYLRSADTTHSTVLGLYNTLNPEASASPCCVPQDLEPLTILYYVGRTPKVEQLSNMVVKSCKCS
Assay: ratio of Biacore Kd for TGF-β3 to Kd for TGF-β1
Protocol: Affinities of binding composition mAbs for TGF-β3 are determined using BIAcore methods. All measurements are performed at room temperature. Samples are dissolved in HBS-EP buffer (150 mM sodium chloride, 3 mM EDTA, 0.01% (w/v) surfactant P-20, and 10 mM HEPES, pH 7.4). Recombinant Protein A is immobilized on four flow cells of a CM4 sensor chip at a level of 400-450 response units (RUs) using an amine coupling kit. Binding is evaluated over multiple analytical cycles. Each cycle is performed at a flow rate of 100 μL/minute consisting of the following steps: injection of 15 μL of an antibody binding composition at 0.5 μg/mL, injection of 250 μL of TGF-β3 (starting at 5 nM and using two-fold serial dilutions to […] for each cycle, with two injections for each concentration) followed by a short (5 minutes) delay for dissociation, and regeneration using two injections of 50 μL of 10 mM glycine hydrochloride, pH 1.5.
Affinities are determined based upon the equilibrium signal as reached at varying TGF-β3 concentrations by measuring the average signal during the last 10 seconds of the TGF-β3 injections, and then fitting the resulting signals at all of the TGF-β3 concentrations to a simple binding equilibrium model in SCRUBBER (Center for Biomolecular Interaction Analysis, Univ. of Utah). Model data determined for tested human mab composition of the invention of Kd and specificity calculated by dividing the Kd for TGF-β3 binding by the Kd for TGF-β1 binding (herein) is shown below in Table 5.

B1: mAb 21D1 (antibody, human IgG4 S228P, kappa, V domains shown)
VH: QVQLVQSGAEVKKPGASVKVSCKASGYTFTDYNIHWVRQAPGQGLEWMGYIYPYDGETGYNQKFKSRVTMTTDTSTSTAYMELRSLRSDDTAVYYCARGYRWFAYWGQGTLVTVSS
VL: DIQMTQSPSSLSASVGDRVTITCRASSSVPYMHWFQQKPGKAPKSLIYATSNPAYGVPSRFSGSGSGTDFTLTISSLQPEDFATYYCQQWDLNPPAFGQGTKLEIKR
notes: Full-length IgG4 antibody; also called LA307-21D1
- Specificity (Kd, β3/Kd, β1): 9800

B4: mAb 23A3 (antibody, V domains shown)
VH: B1 VH with T28D, I34M, H35V, Y50S, W102A, A104E
VL: DIQMTQSPSSLSASVGDRVTITCRASSSVPYMHWYQQKPGKAPKLLIYATSNPAYGVPSRFSGSGSGTDFTLTISSLQPEDFATYYCQQWDLNPPAFGQGTKLEIK
- Specificity (Kd, β3/Kd, β1): 1050

Now from value to binder:

- Specificity (Kd, β3/Kd, β1): 2320
B2: mAb DM7 (antibody, V domains shown)
VH: B1 VH with T28D, I34M, F103L, A104Y
VL: B4 VL with P30S, L45P, P53L, Y55K

- Specificity (Kd, β3/Kd, β1): 621
B3: mAb DM4 (antibody, human IgG4 S228P, kappa, V domains shown)
VH: B1 VH with T28D, F103L
VL: B1 VL with P30S, F35Y, S45P, P53L
notes: Full-length IgG4 antibody; also called LA307-DM4
